The nanobody polyreactivity screen of Harvey et al. (2022)

Experiment: yeast display, Sf9 membrane polyspecificity reagent, FACS + sequencing; frameworks hold sequencing errors
Method in brief: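 Galactose-induced (36–48 hours) yeast carrying a synthetic nanobody display library were exposed to 10% biotinylated, detergent-solubilized Sf9 membrane reagent at 4 °C for 1 hour. FACS followed streptavidin microbead enrichment, using low and high (top ~1%) gates for expression (anti-HA) and reagent binding (streptavidin). Colony PCR, MiSeq 2 × 250 sequencing and CDR-length filtering followed. Labels for polyreactivity reflect the gate of origin.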

QVQLVESGGGLVQAGGSLRLSCAASGFTFKPYTMGWYRQAPGKERELVAAISRSGGSTYYADSVKGRFTISRDNAKNTVYLQMNSLKPEDTAVYYCAKRGNSWYLGGSWGQGTQVTVSS
polyreactivity (PSR sort gate): high polyreactivity

QVQLVESGGGLVQAGGSLRLSCAASGITFDYYAMGWYRQAPGIERELVAAIDDSGGSTYYADSVKGRFTISRDNAKNTVYLQMNSLKPEDTAVYYCAAEFFYYEYDYWGQGTQVTVSS
polyreactivity (PSR sort gate): high polyreactivity

QVQLVESGGGLVQAGGSLRLICAASGRIFSLYAMGWYRQAPGKERELVAAITWSSGSTYYADSVKGRFTISRDNAKNTVYLQMNSLKPEDTAVYYCNAVWRTRDYDYWGQGTQVTVSS
polyreactivity (PSR sort gate): low polyreactivity

QVQLVESGGGLVQAGGSLRLSCAASGIIFWYYAMGWYRQAPGKERELVAAISRGGTTYYADSVKGRFTISRDNAKNTVYLQMNSLKPEDTAVYYCAAGVRYRLTRYFYPDFDYWGQGTQVTVSS
polyreactivity (PSR sort gate): high polyreactivity

QVQLVESGGGLVQAGGSLRLSCAASGRTFHRYVMGWYRQAPGKERELVAAITRSGGITYYADSVKGRFTISRDNAKNTVYLQMNSLKPEDTAVYYCAKDDQTASGFDYWGQGTQVTVSS
polyreactivity (PSR sort gate): low polyreactivity

QVQLVESGGGLVQEGGSLRLSCAASGLIFPSYARGWYRPAPGKERELVAGINTGGSTNYADSVKGRFTISRDNAKNTVSLQMNSQKPEDTAVYYCAKDNNYYWYVSPRDYWGLGTQVTVSS
polyreactivity (PSR sort gate): low polyreactivity

QVQLVESGGGLVQAGGSLRLSCSASGNIFFGYAMGLYRQAPGKERQFVASITKIGGSTYYADSVKGRFTISRDNAKNTVYLQLNSLKPEDTAVYYCAARLGHSVNPGGERWDVVYWGQGTQVTVSS
polyreactivity (PSR sort gate): low polyreactivity

QVQLVESGGGLVQAGGSLRLSCAASRITFSLYAMGWYRQAPGKERELGAAISRGGSTKYADSVKGRFTISRDNAKNTVYLQMNSLKPEDTAVYYCNASARTYGGQTWNYYWGQGTQVTVSS
polyreactivity (PSR sort gate): high polyreactivity

QVQLVESGGCLVQAGGSLRLSCAASGRTYVVNAMGWYRHAPGKESELVAAITTGGSTYYADSVKGRFTISRENAKYTVYLQMNSLKPEDTAVYYCAADIYLYYIFDYWVDYDYWGQCTQVTVSS
polyreactivity (PSR sort gate): high polyreactivity

QVQLVESVGCLVQAGGSLRLSCAASGNIITNNAMGWYRQAPGKERELVAAITRGGNTNYADSVKGRFTISRDNAKKTVYLQMKSLKPEDTAVFYCAADRYVELLGYFFEYDYWGQGTQVTVSS
polyreactivity (PSR sort gate): low polyreactivity

QVQLVESGGGLVQAGGSLRLSCAASGSIFGFYAMGWYRQAPGKERELVAGISYGDSSTYYADSVKGRFTISRDNAKNTVYLQMNSLKPEDTAVYYCAAGHRQKYNWGRYDYWGQGTQVTVSS
polyreactivity (PSR sort gate): low polyreactivity

QVQLVESGGGLVQAGGSLRLSCAASGSTFVPNAMGWYRQSPGKERELVAAISRSAGSTYYADSVKGRFTISRDNAKNTVYLQMNSLKPEDTAVYYCAADSLTYIAYDYWGQGTQVTVSS
polyreactivity (PSR sort gate): high polyreactivity

EEELVESGGGLVQPGGSLRLSCAASGSIFTHYSMGWYRQAPGKERELVAAISWSGGSTYYADSVKGRFTISRDNAKYTVSLQMNSLKAEDTAVYYCAAETYWGDDYWGQGTQVTVSS
polyreactivity (PSR sort gate): high polyreactivity

QVQLVESGGGLVQAGGSLRLSCAASGRTFYNYAMGWYRQAPGKEREFVAAITFRTSSTYYADSVKGRFTISRDNAKNTVYLQMNSLKQEDTAVYYCNADRYWGYDYWGQGTQVTVSS
polyreactivity (PSR sort gate): high polyreactivity

QVQLVESGGGLVQAGGSLRLSCAASGSIYYAMGWYRQAPGKEREFVAAINSGGSTYYADSVKGRFTISRDNAKNTVYLQMNSLKPEDTAVYYCAADVWTPYLMSLKYGYDYWGQGTQVTVSS
polyreactivity (PSR sort gate): low polyreactivity

QVQLVESGGGLVQAGGSLRLSCAASGLTFKFNAMGWYIQAPGKERELVADISFGGDDTYYSDSVKGRFTISRDNAKNTVYLQMNSQKPEDNAVYYCAAEYDTWGYSGRDYWGQGTQVTVSS
polyreactivity (PSR sort gate): low polyreactivity

QVQLVESGGGLVQAGGSLRLSCAASGSTFAYYAMGWYRPAPGTERELVAAISKSGGSTYYADSVKGRFTISRDNAKNTFYIQMISLKPEDTAVYYCAAGKFRYRSRFDFWGQGTQVTVSS
polyreactivity (PSR sort gate): high polyreactivity

QVQLVESGGGLVQAGGSLRLSCAASGSTFTRYAMGWYRQAPGTERECVAGITSIGGRTYYADSVKGRFTISRDNAKNTVYLQMNSLKPEDTAVYYCAKRWGRYYYPYDYWGQGTQVTVSS
polyreactivity (PSR sort gate): high polyreactivity

QVQLVESVGGLVQAGGSLRLSCAASGFIFYYNTMGWYRQAPGKERELVAAISSGGRTYYADSVKGRFTISRDNAKNTVYLQMNSLKPEYTAVYYCNVVTYVKYGYWGQGTQVTVSS
polyreactivity (PSR sort gate): high polyreactivity

QVQLVESGGGLVQAGCSLRLSCAASGATPQNAMGWYRQAPGKERELVAAISKRGGSTYYADSVKGRFTISRDNAKNTVYLQMISLKPEDTAVYYCAKSGRNYYDDDYWGQGTQVTVSS
polyreactivity (PSR sort gate): high polyreactivity

QVQLVESGGGLVQAGGSLRLSCAASGIIIDSNAMGWYRQAPGKERELVAAITSGGSTKYADSVKGRFTISRDNAKNTVYLQMNSLKPEDTAVYYCAAGGSYYRDDYWGQGTQVTVSS
polyreactivity (PSR sort gate): low polyreactivity

QVQLVESGGGLVQAGGSLRLSCAASGSIFYYYAMGWYRQAPGKERELVAAITVSGGRTYYADSVKGRFTISRDNAKNTVYLQMNSLKPEDTAVYYCAAQIYGKYDYWGQGTQVTVSS
polyreactivity (PSR sort gate): low polyreactivity

QVQLVESGGGLVQAGGSLRLSCAASGLIFDSYDMGGSRQAPGKERELVAAIRRNGGSTYYADSLKGRFTISRDNAKNTVYLQMNSLIPEDTEVYYCAVDNSGYSGVYWVKMDYWGQGTQVTVSS
polyreactivity (PSR sort gate): low polyreactivity

QVQLVESGGGLVQAGGSLRLSCAASGLTFSRYAMGWYRQAPGKERELVAAISSRSGSTFYADSVKGRFTISRDNAKNTVYLQMNSLKPEDTAVYYCAARRDWLGGYWGQGTQVTVSS
polyreactivity (PSR sort gate): high polyreactivity

QVQLVESGGGLVQAGGSLRLSCAASGITLKRYAMGWYRQAPGKERELVAAITGRGGGTNYADSVKGRFTISRDNAKNTVYLQMNSLKPEDTAVYYCTAATYGDYSNLGYGYWGQGTQVTVSS
polyreactivity (PSR sort gate): high polyreactivity

QVQLVESGGGLVQAGGSLRLSCAASGFIFLEYAMGWYRQAPGKERELVAAISSRGTRTYYADSVKGRFTISRDNAKNTVYLQMNSLKPEDSAVYYCARVWSQSSNYEYDYWGQGTQVTVSS
polyreactivity (PSR sort gate): high polyreactivity

QVQLVESGGGLVQAGGSLRLSCAASGFIFAGYTMGWYRQAPGKERELVAAINSGGSTKYADSVKGRFTISRDNAKNTVYLHMNSLKPEDTAVYYCNADYGWYFLFDYWGQGTQVTVSS
polyreactivity (PSR sort gate): low polyreactivity

QVQLEESGGGLVQAGGSLRLSCAASGFTFSRNAMGWYRKAPGKERQLVARISSRGGSTYYADSVKGRFTISRDNAKKTVYLQMNSLKPEDTAVYYCARDPVGTTAARYNYWGQGTQVTVSS
polyreactivity (PSR sort gate): high polyreactivity

QVQLVESGGGLVQAGGSLRLSCAASGGTCWWYAMGWYRQAPGKEREFVAAISQRGTSTYYADSVKGRFTISRDNAKNTVYLQMNSLKPEDTAVYYCAVRAYRWRSTLGLYYWGQGTQVTVSS
polyreactivity (PSR sort gate): high polyreactivity

QVQLVESGGGLVQAGGSLRLSCAASGSTFRNNAMGWYRQAPGKERELVAAISRGGGSTYYADSVKGRFTISRDNAKNTVYLQMNSLKPEDTAVYYCARRPTGIYDYWGQGTQVTVSS
polyreactivity (PSR sort gate): high polyreactivity

QVQLVESGGGLVQAGGSLRLSCAASGRIFPFNAMGWYRQAPGKERELVAVITWDGGSTYYADSVKGRFTISRDNAKNTVYLQMNSLKPEDTAVYYCAADIRRYYPGYEYWGQGTQVTVSS
polyreactivity (PSR sort gate): low polyreactivity

QVQLVESGGGLVQAGGSLRLSCAASGSTFRIYAMGWYRQAPGKERELVAAISWSSGSTYYADSVKGRFTISRDNAKNTVYFQMNSLKPEDTAVYYCATYARRSGYYYWGQGTQVTVSS
polyreactivity (PSR sort gate): high polyreactivity

QVQLVESGGGLVQAGGSLRLSCAASGSTFKQYAMGWYRQAPGKERELVAAISRSGSRTYYADSVKGRFTISRDNAKNTVYLQMNSLIPEDTAVYYCAAERRSTAGWLYDYWGQGTQVTVSS
polyreactivity (PSR sort gate): high polyreactivity

QVQLVESGGGLVQAGGSLRLICAASGRTFRYYAMGWYRQAPGKERELVAAISASGGSTFYADSVKGRFTISRDNAKNTVYLQMNSLKPEDTAVYYCAAYHYSVFPYKQYDYWGQGTQVTVSS
polyreactivity (PSR sort gate): high polyreactivity

QVQLVESGGGLVQAGGSLRLSCAASGRIFGYYAMGWYRQAPGKERELVAAISQGGGSTYADSVKGRFTISRDNAKNTVYLQMNSLKPEDTAVYYCAKRRRTGYGYWGQGTQVTVSS
polyreactivity (PSR sort gate): high polyreactivity

QVQLVESGGGLVQAGGSLRLSCAASGITFYRNARGWYRQAPGKERELVAAITSGTRTYYADSVKGRFTISRDNAKNTVYLQMNSLKPEDTAVYYCAKRGPYYNDDEYYCGQGTQVTVSS
polyreactivity (PSR sort gate): low polyreactivity

QVQLVESGGGLVQAGGSLRLSCAASGSTYANAMGWYRQAPGKERELVAAITDNGGRTYYADSVKGRFTISRDNEKNNVYLQMNSLKPEDTAVYYCAARSSVWGQVTQVTVSS
polyreactivity (PSR sort gate): low polyreactivity

QVQLVESGGGLFHAGGSLRLSCAASGRTFGIYAMGGSRQAPGKERELVAAITWSGDSTYYADSVKGRFTISRDNAKNTVYLQMNRLKPEDTAVYYCAADYVGVTSVRYDYWGQGTQVTVSS
polyreactivity (PSR sort gate): low polyreactivity

QVQLVESGGGLVQAGGSLRLSCAASGIIFINYAMGWYRQAPGKERELVAAINSGGSTKYADSEKGRFTISRDNAKNTVYLLMNSLKPEDTAVYDCAAVPAGRYYWWLYYYWGQGTQVTVSS
polyreactivity (PSR sort gate): high polyreactivity

QVQLVESGGGLVQAGGSLRLSCAASGRTFWIYAMGWYRQAPGKERELVAAITGSGGSTYYADSVKGRFTISRDNAKNTVYLQMNSLKPEDTAVYYCNARVPDSYKWSAYYSHDYWGQGTQVTVSS
polyreactivity (PSR sort gate): low polyreactivity

QVQLVESGGGLVRAGGSLRLSCAASGSTFTNNAMGWYRQAPGKERELVAAITWIGGNTYYADTVKGRFTISRDNAKNTVYLQMNSLKPEDTAVYYCAADRRSRYHDVYGWLYYYWGQGTQVTVSS
polyreactivity (PSR sort gate): low polyreactivity

QVQLVESGGGLVQAGGSLRLSCAASGSTFWGYAMGWYRQAPGKERELVAAINWIGGSDTFYADSVKGRFTISRDNAKNTVYLQMNSLKPEDTAVYYCAATYYNLPYSWGYDYWGQGTQVTVSS
polyreactivity (PSR sort gate): low polyreactivity

QVHLVESGGGLVQAGGSLRLSCAASGFTSQYYAMGWYRQAPGKERELVAAITLRDGSTYYADSVKGRFTISRDNAKNTVYLQMNSLKPEDTAVYYCNTDATSDPYGFGYWGQGTQVTVSS
polyreactivity (PSR sort gate): low polyreactivity
